Reference: the supplement of paper PMC9112550, “Optimization of the antimicrobial peptide Bac7 by deep mutational scanning” (BMC Biology, 2022)

Each sequence was assayed on Escherichia coli TOP10 (assay: shrunken log2 fold change of peptide-encoding DNA abundance (4.5 h post-induction vs induction); higher = less antimicrobial activity (less host growth inhibition)). Details: time post-induction: 4.5 h; library: site-saturation at positions 5, 18, 19, 20.
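Note: peptides expressed intracellularly from a pBAD plasmid library in pooled LB shake-flask culture, induced with 0.3% L-arabinose, DNA abundance read by NGS, three biological replicates, DESeq2 with apeglm shrinkage.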

Point of comparison: RRIRNRPPRLPRPRPRPQSAPRP, “shrunken log2 fold change” value -0.073. Against it:
- RRIRKRPPRLPRPRPRPMCIPRP — within 0.2 log units, -0.00174
- RRIRFRPPRLPRPRPRPTFQPRP — within 0.2 log units, -0.156
- RRIRTRPPRLPRPRPRPWNMPRP — lower, -0.276
- RRIRIRPPRLPRPRPRPKWFPRP — lower, -0.69
- RRIRIRPPRLPRPRPRPASCPRP — within 0.2 log units, -0.1
- RRIRSRPPRLPRPRPRPFLIPRP — lower, -0.383
- RRIRARPPRLPRPRPRPFFYPRP — within 0.2 log units, 0.105
- RRIRERPPRLPRPRPRPREPPRP — higher, 0.392
- RRIRFRPPRLPRPRPRPATIPRP — lower, -0.506
- RRIRDRPPRLPRPRPRPPSCPRP — higher, 0.379
- RRIRQRPPRLPRPRPRPCVHPRP — lower, -0.629
- RRIRWRPPRLPRPRPRPKTFPRP — within 0.2 log units, -0.0777
- RRIRDRPPRLPRPRPRPKRTPRP — higher, 0.143
- RRIRMRPPRLPRPRPRPMKFPRP — within 0.2 log units, 0.0534
- RRIRIRPPRLPRPRPRPWRCPRP — within 0.2 log units, -0.107
- RRIRWRPPRLPRPRPRPVKEPRP — within 0.2 log units, -0.0992
- RRIRERPPRLPRPRPRPRVGPRP — higher, 0.33
- RRIRYRPPRLPRPRPRPFKMPRP — lower, -0.673
- RRIRSRPPRLPRPRPRPACYPRP — within 0.2 log units, -0.0386
- RRIRCRPPRLPRPRPRPYQNPRP — lower, -1.1
- RRIRSRPPRLPRPRPRPGHDPRP — within 0.2 log units, -0.0796
- RRIRWRPPRLPRPRPRPITGPRP — within 0.2 log units, 0.047
- RRIRLRPPRLPRPRPRPGTFPRP — within 0.2 log units, 0.0118
- RRIRDRPPRLPRPRPRPHHRPRP — lower, -0.277
- RRIRLRPPRLPRPRPRPLRNPRP — higher, 0.737
- RRIRLRPPRLPRPRPRPGHVPRP — within 0.2 log units, 0.0522
- RRIRIRPPRLPRPRPRPEAQPRP — within 0.2 log units, 0.0863
- RRIRWRPPRLPRPRPRPSCIPRP — within 0.2 log units, -0.261
- RRIRPRPPRLPRPRPRPIIDPRP — lower, -0.297
- RRIRVRPPRLPRPRPRPCITPRP — within 0.2 log units, -0.233
- RRIRDRPPRLPRPRPRPQMTPRP — within 0.2 log units, 0.103
- RRIRWRPPRLPRPRPRPNNKPRP — lower, -0.392
- RRIRARPPRLPRPRPRPQSCPRP — within 0.2 log units, -0.0161
- RRIRQRPPRLPRPRPRPKKVPRP — within 0.2 log units, -0.0514
- RRIRMRPPRLPRPRPRPVTDPRP — within 0.2 log units, -0.0129
- RRIRDRPPRLPRPRPRPSPKPRP — within 0.2 log units, -0.00809
- RRIRKRPPRLPRPRPRPHEQPRP — within 0.2 log units, -0.00968
- RRIRMRPPRLPRPRPRPKWMPRP — higher, 0.21
- RRIRYRPPRLPRPRPRPNQEPRP — within 0.2 log units, 0.000655
- RRIRKRPPRLPRPRPRPGAVPRP — higher, 0.749
- RRIRLRPPRLPRPRPRPRWVPRP — higher, 0.237
- RRIRHRPPRLPRPRPRPANRPRP — within 0.2 log units, -0.129
- RRIRNRPPRLPRPRPRPRQLPRP — higher, 0.244
- RRIRPRPPRLPRPRPRPLRMPRP — higher, 0.596
- RRIRWRPPRLPRPRPRPRTFPRP — higher, 0.3
- RRIRIRPPRLPRPRPRPHWMPRP — lower, -1.57
- RRIRVRPPRLPRPRPRPKMDPRP — within 0.2 log units, -0.093
- RRIRMRPPRLPRPRPRPCMIPRP — within 0.2 log units, -0.0212
- RRIRSRPPRLPRPRPRPFMDPRP — lower, -0.519
- RRIRTRPPRLPRPRPRPRRIPRP — within 0.2 log units, -0.16
- RRIRTRPPRLPRPRPRPKEMPRP — within 0.2 log units, -0.0567
- RRIRIRPPRLPRPRPRPPHLPRP — within 0.2 log units, -0.14
- RRIRARPPRLPRPRPRPSEYPRP — within 0.2 log units, -0.264
- RRIRYRPPRLPRPRPRPQRWPRP — within 0.2 log units, -0.13
- RRIRCRPPRLPRPRPRPPWPPRP — higher, 0.54
- RRIRMRPPRLPRPRPRPGLYPRP — within 0.2 log units, -0.196
- RRIRQRPPRLPRPRPRPSHDPRP — within 0.2 log units, -0.104
- RRIRQRPPRLPRPRPRPMYKPRP — within 0.2 log units, -0.0194
- RRIRVRPPRLPRPRPRPRRRPRP — higher, 0.271
- RRIRDRPPRLPRPRPRPEIWPRP — higher, 0.162
- RRIRCRPPRLPRPRPRPTADPRP — higher, 0.363
- RRIRQRPPRLPRPRPRPGSSPRP — within 0.2 log units, -0.172
- RRIRGRPPRLPRPRPRPGDEPRP — higher, 1.81
- RRIRCRPPRLPRPRPRPPVGPRP — higher, 0.414
- RRIRFRPPRLPRPRPRPSGIPRP — lower, -0.287
- RRIRDRPPRLPRPRPRPIPPPRP — higher, 0.239
- RRIRQRPPRLPRPRPRPYSVPRP — within 0.2 log units, -0.00968
- RRIRSRPPRLPRPRPRPIYRPRP — within 0.2 log units, 0.0394
- RRIRYRPPRLPRPRPRPNFWPRP — higher, 0.293
- RRIRWRPPRLPRPRPRPSRYPRP — lower, -0.483
- RRIRYRPPRLPRPRPRPMVTPRP — within 0.2 log units, 0.0309
- RRIRFRPPRLPRPRPRPSSFPRP — within 0.2 log units, -0.227
- RRIRDRPPRLPRPRPRPTIDPRP — higher, 0.607
- RRIRERPPRLPRPRPRPPPFPRP — higher, 0.313
